In the data set the target is MAX:MAX (UniProt P61244 1-160). Put plainly: EMSA; no SNF5; 15 mM Tris-HCl pH 7.9, 15% glycerol, 100 mM KCl, 0.15 mM EDTA, 0.075% NP-40, 7.5 mM 2-mercaptoethanol, 40 ng poly(dI-dC), 375 ng/ul BSA, 25 fmol probe, 10-15 ul, 30 min, room temperature; SUMO-BAF155(533-580) added to equalize total protein in SNF5 experiments. The following applies: protein: recombinant; tags: 6xHis; chain copies: 2; label: 3'-biotin.
Sequence of MAX:MAX (P61244 whole entry): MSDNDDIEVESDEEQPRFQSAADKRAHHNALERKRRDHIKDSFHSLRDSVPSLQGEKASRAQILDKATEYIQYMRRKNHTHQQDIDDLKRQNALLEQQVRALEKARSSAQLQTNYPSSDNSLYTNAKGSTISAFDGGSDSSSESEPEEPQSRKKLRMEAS

B1: wild-type E-box probe (dsDNA)
DNA 1: GCTCAGGGACCACGTGGTCGGGGATC
DNA 2: GATCCCCGACCACGTGGTCCCTGAGC
For the molecule B1, the binding result is “binds”.
